Source: US20170058030A1
One block for each substance: values may come before it.

Columns and labels:
[1] = target: FcγRIIIa-V158-GST (human) (UniProt P08637); assay: ELISA, STPK-Fc coated, receptor titrated
mFcγRII-His (mouse) [2] = target: mFcγRII-His (mouse)
mFcγRIII-His (mouse) [3] = target: mFcγRIII-His (mouse) (UniProt P08508)
FcγRIIa-H131-GST (human) [4] = target: FcγRIIa-H131-GST (human) (UniProt P12318); assay: ELISA: antibody coated on the plate, receptor titrated in 5-fold steps, HRP-labelled secondary antibody, absorbance at 450 nm
FcγRIIa-R131-GST (human) [5] = target: FcγRIIa-R131-GST (human) (UniProt P12318); assay: as above
FcγRIIb-GST (human) [6] = target: FcγRIIb-GST (human) (UniProt P31994); assay: SPR, IgG on chip, dimeric FcγRIIB, bivalent fit, KD = KD1/(1 + 1/KD2)
FcγRI-His (human) [7] = target: FcγRI-His (human) (UniProt P12314); assay: ELISA, IgG coated, 60 nM FcγRI
FcγRI-His (human) [8] = target: FcγRI-His (human) (UniProt P12314); assay: SPR, IgG on chip, 200 nM monomeric FcγRI
FcγRIIb-GST (human) [9] = target: FcγRIIb-GST (human) (UniProt P31994); assay: SPR, IgG on chip, dimeric FcγRIIB, bivalent fit
FcγRIIa-H131-GST (human) [10] = target: FcγRIIa-H131-GST (human) (UniProt P12318); assay: ELISA, IgG coated, 200 nM receptor
[11] = target: FcγRIIIa-V158-GST (human) (UniProt P08637); assay: ELISA, IgG coated, 200 nM receptor
[12] = target: FcγRIIIa-F158-GST (human) (UniProt P08637); assay: ELISA, IgG coated, 200 nM receptor
FcγRIIa-R131-GST (human) [13] = target: FcγRIIa-R131-GST (human) (UniProt P12318); assay: ELISA, IgG coated, 200 nM receptor
FcγRIIb-GST (human) [14] = target: FcγRIIb-GST (human) (UniProt P31994); assay: ELISA, IgG coated, 60 nM receptor
mFcγRIII-His (mouse) [15] = target: mFcγRIII-His (mouse) (UniProt P08508); assay: FACS on spheroplasts, 1 µM mFcγRIII, anti-His-PE
mFcγRIV-His (mouse) = assay: FACS on spheroplasts, 1 µM mFcγRIV, anti-His-PE
mFcγRII-His (mouse) [16] = assay: FACS on spheroplasts, 100 nM b-mFcγRII, SA-PE
mFcγRI-His (mouse) = mFcγRI-His (mouse) (UniProt P08101); assay: FACS on spheroplasts, 1 µM mFcγRI, anti-His-PE
FcγRIIb-GST (human) [17] = target: FcγRIIb-GST (human) (UniProt P31994); assay: FACS on spheroplasts, 400 nM FcγRIIB-GST
FcγRIIb-GST (human) [18] = target: FcγRIIb-GST (human) (UniProt P31994); assay: FACS on spheroplasts, 400 nM FcγRIIB-GST; remark: listed apart in the source
FcγRIIb-GST (human) [19] = target: FcγRIIb-GST (human) (UniProt P31994); assay: FACS on spheroplasts, 100 nM FcγRIIb-GST-PE
[20] = target: FcγRIIA (H131 and R131)-GST (human) (UniProt P12318); assay: FACS on spheroplasts, 400 nM FcγRIIA-GST

Substance: STPK-mFc (from UniProt P00779 27-440) (Fc fusion)
IC50 [1]: > 0.3 µM
Kd (mFcγRII-His (mouse) [2]): 16.1 µM
Kd (mFcγRIII-His (mouse) [3]): 14.9 µM

Substance: wild-type aglycosylated IgG1 displayed on E. coli spheroplasts (antibody)
MFI (FcγRIIb-GST (human) [17]): 14
MFI (FcγRIIb-GST (human) [18]): 11.1
MFI (FcγRIIb-GST (human) [19]): 23.5
MFI [20]: 40.9

Now from value to substance:

EC50 (read off the curve) (FcγRIIa-H131-GST (human) [4]): 0.04 µM
EC50 (read off the curve) (FcγRIIa-R131-GST (human) [5]): 0.01 µM
Substance: glycosylated wild type IgG1 (control of Example 10) (antibody)

Kd (FcγRIIb-GST (human) [6]): 8.07 µM
absorbance at 450 nm (FcγRI-His (human) [7]): 1.51
RUmax (FcγRI-His (human) [8]): 260 RU
kD1 (FcγRIIb-GST (human) [9]): 8.69e-06
kD2 (FcγRIIb-GST (human) [9]): 13.1
absorbance at 450 nm (FcγRIIa-H131-GST (human) [10]): 2.35
absorbance at 450 nm [11]: 0.848
absorbance at 450 nm [12]: 0.203
absorbance at 450 nm (FcγRIIa-R131-GST (human) [13]): 1.44
absorbance at 450 nm (FcγRIIb-GST (human) [14]): 0.183
Substance: Rituximab (glycosylated, wild-type IgG1 Fc) (antibody)

MFI (mFcγRIII-His (mouse) [15]): 143
MFI (mFcγRIV-His (mouse)): 155
MFI (mFcγRII-His (mouse) [16]): 61.8
MFI (mFcγRI-His (mouse)): 515
Substance: wild-type aglycosylated mIgG1 displayed on E. coli spheroplasts (antibody)
